In the data set the target is human alpha-thrombin (human, UniProt P00734;P00734 328-363;364-622). In words: ctITP-NECEEM capillary electrophoresis; no metal ions; 400 nM thrombin; Tris-HCl sample buffer, no added metal ions, 30 min incubation; Tris and glycine reagents for CE; pH and temperature not given in the material.

B1: 29mer thrombin aptamer with Ion Torrent primer handles and spacer (97 nt) (structured_DNA)
DNA: CCTCTCTATGGGCAGTCGGTGATAGTCCGTGGTAGGGCAGGTTGGGGTGACTTAAGGAGTTCAATATCTGAGTCGGAGACACGCAGGGATGAGATGG
Consider B1, for which the binding result is reported as “binds”.

The record behind these values is paper PMC4329186.
